# Measured values published in patent US9873733B2, “Anti-staphylococcal antibodies” (priority 2012, dated 2018).
# Changes are numbered by the printed parent chain.
# B1: M-L1: human IgG1 against linear peptide, loop 1 of MprF; VH1A kappa 3; VL Seq. ID: 14, VH Seq. ID: 15 (antibody, V domains shown)
# VH: QVQLVQSGAEVKKPGSSVKVSCKASGGTFNSYAIHWVRQAPGQGLEWMGGIIPIFGIANYAQKFQGRVTITADESTSTAYMELSSLRSEDTAVYYCARDQYTYDYYRAFDYWGQGTLVTVSS
# VL: DIVLTQSPATLSLSPGERATLSCRASQSVRDNLAWYQQKPGQAPRLLIYGASNRATGIPARFSGSGSGTDFTLTISSLEPEDFAVYYCQQYDHSPRTFGQGTKVEIKRT
# modifications: ML1 VH; ML1 VL
# notes: human IgG1 against linear peptide, loop 1 of MprF; VH1A kappa 3; ID: 15
# B2: M-C4.2: human IgG1 against cyclic peptide, loop 4 of MprF; VH3-23 kappa 1; VL Seq. ID: 54, VH Seq. ID: 55 (antibody, V domains shown)
# VH: EVQLLESGGGLVQPGGSLRLSCAASGFTFSSYAMHWVRQAPGKGLEWVSVISSVGSSTYYADSVKGRFTISRDNSKNTLYLQMNSLRAEDTAVYYCARGGLDVWGQGTLVTVSS
# VL: DIQMTQSPSSLSASVGDRVTITCRASQDISKYLNWYQQKPGKAPKLLIYAASRLQSGVPSRFSGSGSGTDFTLTISSLQPEDFATYYCQQGDSTPFTFGQGTKVEIKRT
# modifications: MC42 VH; MC42 VL
# notes: human IgG1 against cyclic peptide, loop 4 of MprF; VH3-23 kappa 1; ID: 55
# B3: M-C6.2: human IgG1 against cyclic peptide, loop 6 of MprF; VH1A kappa 1; VL Seq. ID: 104, VH Seq. ID: 105 (antibody, V domains shown)
# VH: QVQLVQSGAEVKKPGSSVKVSCKASGGTFSSYAISWVRQAPGQGLEWMGGIIPILGIANYAQKFQGRVTITADESTSTAYMELSSLRSEDTAVYYCARSLPYRSDLYGFSRWSYHRVGMDVWGQGTLVTVSS
# VL: B2 VL with K31N, Y32T, R53T, G91V, D92G, T94F, F96Y
# modifications: MC62 VH; MC62 VL
# notes: human IgG1 against cyclic peptide, loop 6 of MprF; VH1A kappa 1; ID: 105
# B4: M-C5.1: human IgG1 against cyclic peptide, loop 5 of MprF; VH1A kappa 1; VL Seq. ID: 74, VH Seq. ID: 75 (antibody, V domains shown)
# VH: QVQLVQSGAEVKKPGSSVKVSCKASGGTFSSYAISWVRQAPGQGLEWMGGIVPIFGTANYAQKFQGRVTITADESTSTAYMELSSLRSEDTAVYYCARVRYGYWDVWGQGTLVTVSS
# VL: B2 VL with S30A, K31N, Y32W, R53S, G91Y, D92I, T94L, F96I
# modifications: MC51 VH; MC51 VL
# notes: human IgG1 against cyclic peptide, loop 5 of MprF; VH1A kappa 1; ID: 75
# Legend:
# S. aureus SA113 = assay: Growth inhibition assay with nisin; format: cell-based, Staphylococcus aureus; conditions: nisin 6 μg/ml
# Protocol: (§1) Therefore S. aureus (S. aureus SA113) cells grown to mid-log phase were used to inoculate fresh TSB medium. These cultures were mixed with anti-MprF (1 μM) antibody or control IgG respectively or with anti-MprF (1 μM) antibody or control IgG in combination with nisin (6 μg/ml). The growth of the S. aureus in presence of anti-MprF antibody was monitored in culture plates shaking at 37° C. by measuring OD600. […] (FIG. 7)
# [1] = tested on: Staphylococcus aureus clinical isolate USA300 (MRSA); assay: Growth inhibition of clinical isolate USA300 by nisin; format: cell-based; conditions: nisin 4.5 μg/ml
# Protocol: as §1
# In this experiment growth inhibition of Staphylococcus aureus clinical isolate USA300 by nisin was tested in the presence of an MprF specific antibody.
# The experiment was performed as described in Example 5. Instead of S. aureus SA113 the clinical isolate S. aureus USA300 was used. The concentration of nisin was 4.5 μg/ml instead of 6 μg/ml nisin.
# [2] = tested on: Staphylococcus aureus clinical isolate 703; assay: Killing of clinical isolate 703 by daptomycin; format: cell-based; conditions: 11 μg/ml daptomycin, in the presence of the anti-lysozyme antibody
# Protocol: (§2) Overnight cultures of S. aureus SA113 Δspa were diluted in fresh MHB medium and adjusted to OD600 0.25 (˜1.5×10^7 cells). Antibodies were adjusted to a concentration of 1 mg/ml and 10 μl were applied per well of a 96 well plate and diluted in 90 μl of the adjusted cell suspension (final antibody concentration: 100 μg/ml). Cells were grown in the presence of anti-lysozyme antibody (control) or with the anti-MprF antibodies. Duplicates were employed for each assay. After 3 hours of incubation under shaking conditions at 37° C., optical density was determined, adjusted to OD600 0.025 in 500 μl ice cold PBS buffer. 80 μl of the adjusted cell suspension were diluted with 20 μl of antimicrobial substances to final concentrations of 22.5 μg/ml nisin. After incubation for 2 hours under shaking conditions at 37° C., the cell suspensions were diluted 1:2000 and 100 μl of each duplicate was plated in triplicates on TSB medium containing agar plates to obtain a representative value of bacterial survival. Cells treated without antimicrobial substance were set at 100% and survival values were calculated with cells treated with antimicrobial substances. At least three independent assays were employed.
# In this experiment killing of Staphylococcus aureus clinical isolate 703 (described in Jones et al., AAC 2008) by daptomycin in the presence of an MprF specific antibody was analyzed. […]
# [3] = tested on: Staphylococcus aureus clinical isolate 703; conditions: Jones et al., AAC 2008; cited from earlier work
# [4] = target: linear peptide representing loop 1 of MprF (Staphylococcus aureus, UniProt Q2G2M2); conditions: IgG at various concentrations; peptide 5 μg/ml
# Sequence of linear peptide representing loop 1 of MprF (Q2G2M2 31-50, looked up, natural form): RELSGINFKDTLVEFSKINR
# Protocol: (§3) The IgGs were tested for binding to the antigen, which was used in their selection. Also binding to other MprF-peptides was tested to check for selectivity.
# MprF-specific IgGs were detected using goat-anti-human IgG (Sigma).
# (§4) In both cases washing was performed using PBST ([…] with 0.05% TWEEN20. Detection was performed using alkaline phosphatase coupled Goat anti-human IgG (Sigma Cat. # A-8542 and Attophos™ substrate Roche, Cat. #11681982001). Fluorescence was measured at an excitation of 440±25 nm and an emission of 550±35 nm. Full signal intensity is typically reached after 5-15 min at room temperature.
# [5] = tested on: S. aureus mutants lacking MprF expression (delta spa delta mprF); assay: Whole cell ELISA on S. aureus mutant lacking MprF; format: binding, Staphylococcus aureus; conditions: compared with delta spa
# Protocol: (§5) The specificity of the purified antibodies was tested for binding to whole cell Staphylococcus aureus in an ELISA assay. Escherichia coli bacteria were used as a negative control.
# (§6) For ELISA on S. aureus the Protein A deletion mutant (delta spa) or the mutant with an additional deletion in MprF (delta spa delta mprf) were grown to mid log phase, than washed in PBS and resuspended in saline to a final OD600 of 0.6. This bacterial culture was coated on Maxisorp plates (Nunc). Plates were blocked with 2% BSA/PBS and washed with TSB containing 0.5% TWEEN20.
# [6] = tested on: MprF on S. aureus (Protein A deletion mutant, delta spa); assay: Whole cell ELISA on S. aureus; format: binding, Staphylococcus aureus; conditions: E. coli as negative control
# Protocol: as §5, §6
# S. aureus SA113 Δspa = assay: Killing of S. aureus by nisin with MprF antibodies; format: cell-based, Staphylococcus aureus; conditions: antibody 100 μg/ml, 22.5 μg/ml nisin, 2 hours; anti-lysozyme antibody as control
# Protocol: In this experiment killing of Staphylococcus aureus was tested. Nisin was used as an exemplary cationic antimicrobial compound. Nisin was tested in combination with selected antibodies of the present invention. An anti-lysozyme antibody was used as a negative control.
# as §2
# [7] = target: cyclic peptide representing loop 4 of MprF (Staphylococcus aureus, UniProt Q2G2M2); conditions: IgG in PBS; biotinylated cyclic peptide 5 μg/ml
# Protocol: as §3
# (§7) For ELISAs with cyclic antigen, the biotinylated cyclic peptides (final conc. 5 μg/ml) were incubated with IgGs in PBS. Then the mix was transferred to a pre-blocked Neutravidin plate (Thermo Scientific), incubated and then the plate was washed with PBS containing 0.5% of TWEEN20. MprF-specific IgGs were detected using goat-anti-human IgG (Sigma).
# as §4
# [8] = target: cyclic peptide representing loop 6 of MprF (Staphylococcus aureus, UniProt Q2G2M2); conditions: IgG in PBS; biotinylated cyclic peptide 5 μg/ml
# Protocol: as §3, §7, §4
# [9] = target: cyclic peptide representing loop 5 of MprF (Staphylococcus aureus, UniProt Q2G2M2); conditions: IgG in PBS; biotinylated cyclic peptide 5 μg/ml
# Protocol: as §3, §7, §4
molecule,measurement,setting,value
nisin,"Growth of S. aureus (OD600), nisin alone",S. aureus SA113,an effect of nisin alone in terms of reducing growths of bacteria was observable
same,"Growth of S. aureus USA300, nisin alone",[1],an effect of nisin alone in terms of reducing bacterial growths was observed
"CCCCCCCCCC(=O)N[C@@H](Cc1c[nH]c2ccccc12)C(=O)N[C@H](CC(N)=O)C(=O)N[C@@H](CC(=O)O)C(=O)N[C@@H]1C(=O)NCC(=O)N[C@@H](CCCN)C(=O)N[C@@H](CC(=O)O)C(=O)N[C@H](C)C(=O)N[C@@H](CC(=O)O)C(=O)NCC(=O)N[C@H](CO)C(=O)N[C@@H]([C@H](C)CC(=O)O)C(=O)N[C@@H](CC(=O)c2ccccc2N)C(=O)O[C@@H]1C [daptomycin, reference compound]",Effect of daptomycin on S. aureus 703,[2],no effect on S. aureus 703
same,Responsiveness of S. aureus clinical isolate 703 to daptomycin,[3],non-responsive to daptomycin
B1,Specific binding to linear loop 1 peptide (ELISA),[4],specifically bind to linear loop 1 peptide in a dose-dependent manner
same,Binding to S. aureus mutants lacking MprF expression (ELISA),[5],significantly weaker binding
same,Binding to whole cell S. aureus (ELISA),[6],detect MprF on S. aureus
B2,"Sensitivity of S. aureus towards nisin (killing, bacterial survival)",S. aureus SA113 Δspa,most pronounced effects
same,Specific binding to cyclic loop 4 peptide (ELISA),[7],specifically bind to cyclic loop 4 peptide in a dose-dependent manner
B3,"Sensitivity of S. aureus towards nisin (killing, bacterial survival)",S. aureus SA113 Δspa,most pronounced effects
same,Specific binding to cyclic loop 6 peptide (ELISA),[8],specifically bind to cyclic loop 6 peptide in a dose-dependent manner
B4,"Sensitivity of S. aureus towards nisin (killing, bacterial survival)",S. aureus SA113 Δspa,most pronounced effects
same,Binding to S. aureus mutants lacking MprF expression (ELISA),[5],significantly weaker binding
same,Specific binding to cyclic loop 5 peptide (ELISA),[9],specifically bind to cyclic loop 5 peptide in a dose-dependent manner
same,Binding to whole cell S. aureus (ELISA),[6],detect MprF on S. aureus
